Assay results reported in patent publication US20220175921A1.

Legend:
[1] = target: human GITR, membrane bound (on activated human T cells or on 3A9-hGITR cells) (UniProt Q9Y5U5); test: cell-based or functional assay
[2] = target: human GITR, membrane bound (on activated human T cells or on 3A9-hGITR cells) (UniProt Q9Y5U5); test: FACS binding; activated human CD8 T cells; conditions: ligand

human GITR, membrane bound (on activated human T cells or on 3A9-hGITR cells), sequence (Q9Y5U5 26-241): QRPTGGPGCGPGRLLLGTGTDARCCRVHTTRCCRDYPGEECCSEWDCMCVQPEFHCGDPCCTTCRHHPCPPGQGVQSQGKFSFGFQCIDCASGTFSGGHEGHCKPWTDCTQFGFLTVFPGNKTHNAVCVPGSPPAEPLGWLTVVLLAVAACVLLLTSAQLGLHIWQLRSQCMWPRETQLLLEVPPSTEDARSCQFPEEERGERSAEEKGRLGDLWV
recombinant human GITR ligand trimer (R&D Systems 6987-GL), sequence (Q9UNG2 49-177): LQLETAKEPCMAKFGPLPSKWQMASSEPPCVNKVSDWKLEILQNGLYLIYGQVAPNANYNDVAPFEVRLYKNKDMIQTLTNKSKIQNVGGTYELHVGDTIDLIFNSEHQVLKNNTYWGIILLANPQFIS

hIgG1 Isotype Control (antibody)
NFKB signaling (phospho-p65) Emax, CD4+ T cells [1]: 4% | NFKB signaling (phospho-p65) Emax, CD8+ T cells [1]: 6%

recombinant human GITR ligand trimer (R&D Systems 6987-GL) (from UniProt Q9UNG2 49-177)
IC50 [2]: 0.0163 µg/mL
